Experimental data taken from publication PMC3537844 (Nature structural & molecular biology, 2012).

Target: the molecule itself
Assay: crystal structure

B1: Methylated MxiAC (318-686) (domain or fragment, Shigella flexneri, UniProt P0A1I5 318-686, looked up)
chain: VVEKEKSLSESDSSGYTGTFDIDNSHDSSLAMIENLDAISSETVPLILLFAENKINANDMEGLIERIRSQFFIDYGVRLPTILYRTSNELKVDDIVLLINEVRADSFNIYFDKVCITDENGDIDALGIPVVSTSYNERVISWVDVSYTENLTNIDAKIKSAQDEFYHQLSQALLNNINEIFGIQETKNMLDQFENRYPDLLKEVFRHVTIQRISEVLQRLLGENISVRNLKLIMESLALWAPREKDVITLVEHVRASLSRYICSKIAVSGEIKVVMLSGYIEDAIRKGIRQTSGGSFLNMDIEVSDEVMETLAHALRELRNAKKNFVLLVSVDIRRFVKRLIDNRFKSILVISYAEIDEAYTINVLKTI
modifications: reductive methylated by dimethylamine borane complex (DMAB) and formaldehyde
  stoichiometry N: 9
